Assay results as given in patent US20250276077A1, “EPHA2 ANTIBODIES” (Immunome, Inc., priority 2022, published 2025).

Biological target: T1, human 4-1BB (Homo sapiens, UniProt Q07011)
T1 construct: host or cells: 4-1BB reporter cells of the Promega bioassay, alone or co-cultured with tumor cells (A549, MDA-MB-231, CT26, PC3, SKOV3)
Assay: 4-1BB activation, inducible reporter cell system with or without tumor cells
Type: cell-based
Details: reporter cells alone or co-cultured with A549 tumor cells; 5 hours
Experimental: After confirming that they retained the ability to bind to PC3 cells, the EphA2-4-1BB bispecific antibodies were assayed for their ability to activate human 4-1BB using an inducible reporter cell system (Promega cat JA2351). […] reporter cells were either cultured alone with the EphA2-4-1BB bispecific antibodies or co-cultured with A549 tumor cells that had been treated with the EphA2-4-1BB bispecific antibodies. The 4-1BB antibody Urelumab (AB-009811) was included as a non-tumor targeting control. After 5 hours of culture, 4-1BB activation was determined from the reporter cells by measuring bioluminescence output.
The activation assay was repeated using MDA-MB-231, CT26, or PC3 tumor cells. […] FIG. 19A-D.
Constructs that comprise AB-008873 fused with h41BBL (THD)3-2 were generated and assayed for the ability to activate 4-1BB for tumor cell lines A549, MDA-MB231, SKOV3, and PC3, as described above for the EphA2-4-1BB bispecific antibodies. AB-009811 was included as a positive control and 5554-41BBL (THD) 3-10 or 5554-41BBL (THD) 3-2 was used as a negative control. […] FIG. 19E.

T1 sequence (Q07011 24-255): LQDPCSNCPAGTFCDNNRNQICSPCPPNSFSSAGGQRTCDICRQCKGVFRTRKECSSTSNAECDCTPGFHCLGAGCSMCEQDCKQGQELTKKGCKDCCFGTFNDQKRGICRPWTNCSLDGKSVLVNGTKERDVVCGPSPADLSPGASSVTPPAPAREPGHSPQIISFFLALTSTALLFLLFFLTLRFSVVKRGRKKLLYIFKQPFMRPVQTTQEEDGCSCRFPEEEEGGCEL

Urelumab: 4-1BB antibody included as a non-tumor targeting control
4-1BB activation with and without tumor cells: activated 4-1BB with us without the presence of tumor cells
